Source: patent publication US20140170677A1

What was measured:
[1] = molecular target: human CXCR4 (Chemokine receptor 4) (human) (UniProt P61073); assay: FACS on Hela cells (endogenous CXCR4), antibody at 10 ug/ml
[2] = molecular target: human CXCR4 (Chemokine receptor 4) (human) (UniProt P61073); assay: FACS on U937 cells (endogenous CXCR4), antibody at 10 ug/ml
[3] = molecular target: human CXCR4 (Chemokine receptor 4) (human) (UniProt P61073); assay: FACS on MDA-MB-231 cells (endogenous CXCR4), antibody at 10 ug/ml

Sequence of UniProt P61073 (P61073 whole entry): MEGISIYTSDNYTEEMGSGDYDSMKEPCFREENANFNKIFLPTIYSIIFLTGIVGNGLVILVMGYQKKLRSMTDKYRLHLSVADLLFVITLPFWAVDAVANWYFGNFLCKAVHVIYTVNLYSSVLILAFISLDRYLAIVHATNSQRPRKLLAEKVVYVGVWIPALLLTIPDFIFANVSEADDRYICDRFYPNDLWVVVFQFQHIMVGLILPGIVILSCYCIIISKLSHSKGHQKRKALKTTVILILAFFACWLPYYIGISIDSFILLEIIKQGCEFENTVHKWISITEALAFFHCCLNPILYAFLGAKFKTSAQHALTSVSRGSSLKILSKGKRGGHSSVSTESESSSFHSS

B1: anti-CXCR4 I-3859 monoclonal antibody (Mab) (antibody, V domains shown)
VH: QVQLKESGPGLVAPSQSLSITCTVSGFSLTDYGVYWVRQPPGKGLEWLGMIWGDGTTDYNSALKSRLSISKDNSKSQVFLKMNTLQTDDTARYYCARGRQFGFDYWGQGTTLTVSS
VL: DIVMSQSPSSLAVSAGEKVTMRCKSSQSLFNSRTRKNYLAWYQQKPGQSPKLLIFWASIRESGVPDRFTGSGSGTDFTLTISSVQAEDLAVYYCKQSYNLRTFGGGTKLEIK
[1]
  MFI: 633 MFI
[2]
  MFI: 246 MFI
[3]
  MFI: 59 MFI
